# Measured values as given in the RNAGym collection of RNA variant scans (doi:10.1073/pnas.2313332121).
# Fewer inactive variants are shown than the library holds.
# B1: TPR 5TU (parent)
# chain: GGAUCUUCUCGAUCUAACAAAAAAGACAAAUCUGCCACAAAGCUUGAGAGCAUCUUCGGAUGCAGAGGCGGCAGCCUUCGGUGGCGCGAUAGCGCCAACGUUCUCAACUAUGACACGCAAAACGCGUGCUCCGUUGAAUGGAGUUUAUCAUG
# Variants of: B1
# Assay: polymerase ribozyme fitness, log enrichment relative to wild type (log ratio); higher = more active; in vitro selection for triplet polymerase activity
# Procedure, shortened: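 Frozen incubation at −7 °C formed the core of a single, triplicate in vitro selection round applied to PCR-built, transcribed mutant libraries of each subunit of a heterodimeric triplet polymerase ribozyme. Extended constructs were gel-excised, captured with streptavidin beads and amplified by RT-PCR, and input and output libraries were Illumina-sequenced with a filter of ≥10 input reads and ≥1 read per output. Fitness is the logarithm of genotype enrichment relative to wild-type enrichment, with inverse-variance-weighted replicate averaging, and the logarithm is base 2.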
row,Variant,polymerase ribozyme fitness (log ratio)
1,U4C G25U U61G G86U C93U G133C,≤ -4.2
2,A17G,0.0905
3,A64U C87A C95U U139A,≤ -4.2
4,U56G A64U G81A G88A C114A A115U G141U,≤ -4.2
5,A26C A29U G126U A138C,≤ -4.2
6,A20G A26U U31G A40G C125G U151C G152A,≤ -4.2
7,C27U C75U,-1.25
8,A23C A29G G81A G84U A122G G126A U135A,≤ -4.2
9,C63U C99U C116A,0.561
10,A30U C69G C79A C87G G126A G140C,≤ -4.2
11,A17C U31C A47C U55A C76U G84U,-3.49
12,A29C U55A C57U U90G A91C U148G,≤ -4.2
13,C14G U15G A24G G58C C87G C108A C114U G136A,≤ -4.2
14,A30U U56G U82C G84U C95U,≤ -4.2
15,C14U A19G G94A A106G C131G,≤ -4.2
16,C103U U134A,-2.39
17,C38G A98U A122C G141C,-2.06
18,A17U C93G U102A A107C G143A,≤ -4.2
19,C32U U45A C54A G84A C85A G92A C93A,≤ -4.2
20,A3U G58A C87G U101C A113U C131G,≤ -4.2
21,G42A C96A A122G A138G U145G,≤ -4.2

row,Variant,polymerase ribozyme fitness (log ratio)
1,A40C G59A G71U G94C U127C,≤ -4.2
2,U55A C125A G141A,-4.12
3,U4C A23C A37G U53A,≤ -4.2
4,A12C G84A,-0.118
5,U9C A26U C38U C54A A66C U78A A89C A97G,≤ -4.2
6,A17G C18U A40C C99G,-3.19
7,A19G A23U C38U G42U G68A U82A,≤ -4.2
8,U56G G84U,-2.16
9,A28G A106G U134G,≤ -4.2
10,A21C A26U G140C U146A,≤ -4.2
11,U7G G34U A60U C93U A107U,≤ -4.2
12,G11A C27A A73C G74A G81A A89U C93G G126U,≤ -4.2
13,A16G A40G G86C,≤ -4.2
14,C10G A89G C103U U134G G141A U151A,≤ -4.2
15,A26G A30C G59A G74A G84U,-3.99
16,C27U A40C U55A C114U U139G,-3.95
17,U53A G81C C85G C108U A138G A147G A150U G152U,-3.91
18,U78A A91U A138C,≤ -4.2
19,C87U C99G,-1.97
20,A28U C35U A91U C132U,-3.89
21,U55G C93A A98U A142U,-3.92

row,Variant,polymerase ribozyme fitness (log ratio)
1,G25U G58U A97C,-2.23
2,U9G G74A A91G C93U G141U,≤ -4.2
3,C95U A119U,-0.544
4,C5A A26C A30U A52C G70A G86C,≤ -4.2
5,G71A C96G,-3.31
6,U6G A20C A22G A26C C57A C87A A120G,≤ -4.2
7,G50C G83C G88U U146A,≤ -4.2
8,C10U A39C C57A G59C A66U G67U G81A C85G C105A U135C G140C G143C,≤ -4.2
9,A91C A113G,-4.15
10,C8A C14G U55A C85U G88U A138U,≤ -4.2
11,A19U G34A A47U C76A C116U,≤ -4.2
12,A30C G92A G100C,≤ -4.2
13,C27A C38U G81A G86U A110U,≤ -4.2
14,A52C C87U A89C C99U,-4.14
15,U4A C36A A52C A73G C95U,≤ -4.2
16,C85A A121U U127C,-1.47
17,G88C G126C,≤ -4.2
18,U102G,-2.51
19,A47G C99A A142U,-2.48
20,A29G A30U C43U G50A G67U C79G G88U C99A G141A,≤ -4.2
21,A16C C35U G80A G94A C118U,-3.33

row,Variant,polymerase ribozyme fitness (log ratio)
1,U55A U139A,-4.05
2,A22U A37U C95U U146A,-1.67
3,A37C C87U,-0.492
4,C69A C85A G124U,-2.55
5,C8A A26U,-3.66
6,U55C C95U C103A,-1.54
7,G11A G46U G92A C118U,≤ -4.2
8,A22C U101G,0.0923
9,G48A C79A C85G A110U G124A,≤ -4.2
10,G70C C87A G140A,≤ -4.2
11,C10U A23U U33G C96G A115C,≤ -4.2
12,G34U U56G G58A C69G G94C A97G U134C,≤ -4.2
13,A29U U101G U104G,≤ -4.2
14,G124C,-0.922
15,A97U U148C,-1.51
16,G50U A60U C87U G94A U146A,≤ -4.2
17,A37C G70U C96G,≤ -4.2
18,C63U A89G C93A,≤ -4.2
19,A29C C32A,≤ -4.2
20,A21C A26C C27U U44G A52G G58C U90A G92A G100U,≤ -4.2
